This assay deals with T1, recombinant YFV E protein (soluble E, sE; YFV Asibi strain) (Yellow fever virus, Asibi strain, UniProt Q6DV88 286-678).
T1 construct: also called YFV E antigen; YFV E monomer
Put plainly: BLI monovalent (IgG on tip).

T1 sequence (Q6DV88 286-678): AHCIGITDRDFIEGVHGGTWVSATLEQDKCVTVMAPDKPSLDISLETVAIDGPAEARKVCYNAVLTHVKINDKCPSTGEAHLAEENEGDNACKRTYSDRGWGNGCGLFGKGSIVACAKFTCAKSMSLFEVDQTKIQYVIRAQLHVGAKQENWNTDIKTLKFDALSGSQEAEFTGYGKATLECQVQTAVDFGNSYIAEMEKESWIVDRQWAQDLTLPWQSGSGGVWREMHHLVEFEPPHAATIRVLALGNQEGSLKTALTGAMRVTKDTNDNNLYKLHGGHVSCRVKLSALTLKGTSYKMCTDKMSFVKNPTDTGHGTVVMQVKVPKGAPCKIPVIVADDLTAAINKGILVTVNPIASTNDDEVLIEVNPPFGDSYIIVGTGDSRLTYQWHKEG

B1: ADI-48950 (antibody, V domains shown)
VH: EVQLVESGGGVVQPGRSLRLSCAVSGFTFSTSPLHWVRQAPGKGLEWVAVSSFVATDKYYADSVKGRFTVSRDNSKNTLYLQMNSLRPEDTAVYYCARGFGELPGFDIWGQGTMVTVSS
VL: SYVLTQPPSASGSPGQSVTISCTGTSSDFGGYNYVSWYQQHPGKAPKLMVYEVAKRPSGVPDRFSGSKSGNTASLTVSGLQAEDEADYYCSSYAGSNNFVVFGGGTKLTVL
notes: full-length IgG; also called Antibody Number 142
For B1, the dissociation constant (Kd) – broadly, the concentration at which binding is half-saturated – worked out at 1.53 nM.

B2: ADI-42206 (antibody, V domains shown)
VH: QVQLVQSGGGLVQPGGSLRLSCAASGFTFSDHYMDWVRQAPGKGLEWVGRIRNKVNSYTTEYAASVKGRFTISRDDSKNSLYLQMNSLKTEDTAVYYCGRDRGWLDIWGQGTMVTVSS
VL: QSVLTQPASVSGSPGQSITISCTGTSSDVGGYNYVSWYQQHPGKAPKLMIYDVTNRPSGVSNRFSGSRSGNTASLTISGLQAEDEADYYCSSYTRSSTRVFGGGTKLTVL
notes: full-length IgG; also called Antibody Number 132
In the case of B2, the Kd worked out at 1.73 nM.

B3: ADI-46724 (antibody, V domains shown)
VH: QVQLQESGPGLVEPSGTLSLTCVVTGDSISSRSWWSWVRQPPGKGLEWIGEIYHSGTTTYSPSLKSRVIISLDKSENHFSLKMTSVTAADTAVYYCARVIRDLRDYYDGSGYGPDAFDIWGQGTTVTVSS
VL: QPVLTQPPSVSAAPGQKVTISCSGSSSNIGSNFVSWYQQFPGTAPKLLIYDDNKRPSGIPDRFSGSKSGTSATLGITGLQTGDEADYYCETWDSRLSVVFGGGTKLTVL
notes: full-length IgG; also called Antibody Number 133
On to B3, for which the Kd was > 100 nM.

B4: ADI-42186 (antibody, V domains shown)
VH: QVQLQQSGPGLVKPSQTLSLTCAISGDSVSTNSAAWNWIRQSPSRGLEWLGRTYYRSKWYNDYALSVKSRITIKPDTSKNQFSLQLNSVTPEDTAVYYCAREGAGYYDSSGYYPLSYDAFDIWGRGTMVTVSS
VL: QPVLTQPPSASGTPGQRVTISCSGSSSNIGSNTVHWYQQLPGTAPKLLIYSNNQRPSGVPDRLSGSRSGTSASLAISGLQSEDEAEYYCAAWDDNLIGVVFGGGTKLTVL
notes: full-length IgG; also called Antibody Number 130
B4: the Kd worked out at 1.21 nM.

B5: ADI-48890 (antibody, V domains shown)
VH: EVQLVESGGGLVQPGGSLRLSCAASGFTFSDHYMDWVRQAPGKGLEWVGRARNRANSYTTEYAASVKGRFAASRDDSKNSLYLQMNSLKTEDTAVYYCARVRGSYWDYWGQGTLVTVSS
VL: QSALTQPPSASGSPGQSVTISCTGTSSDVGGYNYVSWYQQHPGKAPKLMIYEVSKRPSGVPDRFSGSKSGNTASLTVSGLQAEDEADYYCSSFAGSNNLYVFGTGTKVTVL
notes: full-length IgG
Turning to B5, the Kd is > 100 nM.

B6: ADI-49194 (antibody, V domains shown)
VH: EVQLVESGGAVVQPGRSLRLSCAASGFTFSSYGMHWVRQAPGKGLESVAVIWYDGSNKNYADSVKGRFTISRDNSKNTLFLQMNSLRAEDSAMYYCAKTYDSRAYYYLDYWGQGTLVTVSS
VL: ETTLTQSPSTLSTSVGDRVTITCRASQSISSWLAWYQQKPGKAPKLLIYRASSLETEVPSRFSGSGSGTDFTLTISRLQPDDFATYFCQQYNRYPYTFGQGTKLEIK
notes: full-length IgG
B6: the Kd came to 234 nM.

B7: ADI-42124 (antibody, V domains shown)
VH: EVQLLESGGGLVQPGGSLRLSCAASGFTFSSYAMSWVRQAPGKGLELVSAISSSGGSTYYADSVKGRFTISRDNSKNTLYLQMNSLRAEDTALYYCAKDLFYDFWTGITIDYWGQGTLVTVSS
VL: QPVLTQPRSVSGSPGQSVTISCTGTSSDVGGYNYVSWYQQHPGKAPKLMIYDVSKRPSGVPDRFSGSKSGNTASLTISGLQAEDEADYYCCSYAGSYTFVLFGGGTKLTVL
notes: full-length IgG
For B7, the Kd was 5.88 nM.

B8: ADI-48951 (antibody, V domains shown)
VH: EVQLLESGPGLVKPSGTLSLTCAVSGASISSNNWWSWVRQSPGKGLEWIGEIFHSGTTNYNPSLKSRVTISVDKSKNQFSLKLNSVTAADTAVYYCARDVGVAAVITGSVRWGQGTLVTVSS
VL: DIVLTQSPDSLAVSLGERAAINCKSSQSVFFSSDNKNYLAWYQQKPGQPPKLLIYWASTRESGVPDRFSGSGSGTDFTLTISSLQAEDVAVYYCQQFYTTPSTFGQGTKVEIK
notes: full-length IgG; also called Antibody Number 138
For B8, the equilibrium dissociation constant (Kd) was determined as 2.67 nM.

B9: ADI-50218 (antibody, V domains shown)
VH: QVQLVQSGAEVKKPGASVKVSCKASGYTFTSYDINWVRQATGQGLEWMGWMNPNSGNTGYAQKFQGRVTMTRNTSISTAYMELSSLRSEDTAVYYCARGLNTVTNSDYWGQGTLVTVSS
VL: DIQLTQSPSSVSASVGDRVTITCRASQGISSWLAWYQQKPGKAPKLLIYAASSLQSGVPSRFSGSGSGTDFTLTISSLQPEDFATYYCQQANSFPWTFGQGTKVDIK
notes: full-length IgG; also called Antibody Number 128
As for B9, the dissociation constant Kd is > 100 nM.

B10: ADI-42817 (antibody, V domains shown)
VH: QVTLKESGPTLVKPTQTLTLTCTFSGFSLSTSGVGVGWTRQPPGKALEWLALIYWDDDKRYSPSLKSRLTITKDTSKNQVVLTMTKMDPVDTATYYCAHRHIAARLYRDDDVFDVWGQGTMVTVSS
VL: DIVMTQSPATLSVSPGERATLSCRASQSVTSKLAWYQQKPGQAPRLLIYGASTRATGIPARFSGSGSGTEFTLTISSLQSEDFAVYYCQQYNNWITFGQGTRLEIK
notes: full-length IgG
For B10, the Kd came to 4.15 nM.

B11: ADI-50537 (antibody, V domains shown)
VH: QVQLVQSGSELKKPGASVKVSCKASGYTFTSYAMNWVRQAPGQGLEWMGWINTNTGNPTYAQGFTGRFVFSLDTSVSTAYLQISSLKAEDTAVYYCARGYCSSTSCYGGLYWFDPWGQGTLVTVSS
VL: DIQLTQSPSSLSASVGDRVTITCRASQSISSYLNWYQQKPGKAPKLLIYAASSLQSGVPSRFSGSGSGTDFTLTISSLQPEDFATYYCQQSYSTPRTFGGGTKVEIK
notes: full-length IgG; also called Antibody Number 139
Take B11: the dissociation constant (Kd) is > 100 nM.

B12: ADI-48900 (antibody, V domains shown)
VH: EVQLQESGPGLVKPSGTLSLTCAVSGGSISSSDWWSWVRQPPGKGLEWIGEIYHSGSTSYNPSVKSRVSISVDKSKNQFSLQLSSVTAADTAIYYCARVNPPQYSSGWYSVYWGQGTLVTVSS
VL: QSVVTQPPSVSAAPGQKVTISCSGSSSNIGNNYVSWYQQLSETAPKLLIYDNNKRPSGIPNRFSGSKSGTSATLGITGLQTGDEADYYCGTWDNSLGAVVFGGGTKVTVL
notes: full-length IgG; also called Antibody Number 13
As for B12, the Kd was found to be 26.2 nM.

B13: ADI-50539 (antibody, V domains shown)
VH: EVQLVESGPGLVKPSGTLSLTCAVSGGSISSSNWWSWVRQPPGKGLEWIGEIYHSGSTNYNPSLKSRVTISVDKSKNQFSLKLSSVTAADTAVYYCARARWEDGNYYYGMDVWGQGTTVTVSS
VL: QPVLTQPPSVSAAPGQKVTISCSGSSSNIGNNYVSWYQQLPGTAPKLLIYDNNKRPSGIPDRFSGSKSGTSATLGITGLQTGDEADYYCGTWDSSLSAVVFGGGTKVTVL
notes: full-length IgG; also called Antibody Number 134
Regarding B13, the Kd was > 100 nM.

B14: ADI-42114 (antibody, V domains shown)
VH: EVQLLESGGGLVKPGGSLRLSCAASGFTFSSYSMNWVRQAPGKGLEWVSSISSSSSYIYYADSVKGRFTISRDNAKNSLYLQMNSLRAEDTAVYYCARDSWGPFDYWGQGTLVTVSS
VL: QSVLTQPPSVSAAPGQKVTISCSGSSSNIGNNYVSWYQQLPGTAPKLLIYDNNKRPSGIPDRFSGSKSGTSATLGITGLQTGDEADYYCGTWDSSLSAKVFGGGTKLTVL
notes: full-length IgG; also called Antibody Number 143
For the molecule B14, the dissociation constant Kd is > 100 nM.

B15: ADI-46737 (antibody, V domains shown)
VH: QVQLVQSGGGVVQPGRSLRLSCAASGFTFSSYAMHWVRQAPGKGLEWVAVISYDGSNKYYADSVKGRFTISRDNSKNTLYLQMNSLRAEDTAVYYCARDGAGDYIWGSYRHKGLHYYYGMDVWGQGTTVTVSS
VL: DIQLTQSPSSLSASVGDRVTITCRASQGIRNDLGWYQQKPGKAPKRLIYAASSLQSGVPSRFSGSGSGTEFTLTISSLQPEDFATYYCLQHNSYPLTFGGGTKVEIK
notes: full-length IgG; also called Antibody Number 140
B15: the Kd is > 100 nM.

B16: ADI-42217 (antibody, V domains shown)
VH: EVQLVESGGGVVQPGRSLRLSCADSGFTFSYSAIHWVRQAPGKGLEWVAVISYDGSNKYYADSVKGRFTISRDNSKNTLYLQMNSLRPEDTAVYYCARHSGGYSSKDKPTEYFQHWGQGTLVTVSS
VL: QSVLTQPPSVSGAPGQRVTISCTGSSSDIGAGYDVHWYQQLPGTAPKLLIYGNTNRPSGVPDRFSGSKSGTSASLAITGLQAEDEADYYCQSYDSSLSGVVFGGGTKLTVL
notes: full-length IgG
As to B16, the dissociation constant Kd worked out at 4 nM.
